In the supplement of paper PMC11865577:

What was measured:
Assay in all cases: pull-down binding Z-score (relative to library population); higher = stronger binding
Details in all cases: RNA library: Library-2
[1] = system: TO-3-N3 (biotin conjugate)
Method in brief: (§1)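 To score binding, a beads-only signal was subtracted, barcoded replicate probes were averaged with the highest and lowest dropped, and the value was converted to a Z-score using the library mean and standard deviation. The input was 1 μg of Cy5- or Cy3-end-labelled RNA library, heat-folded in phosphate/NaCl/KCl buffer and mixed for 60 min at 25 °C with streptavidin beads carrying 100 pmol of biotin-conjugated small molecule. Bound RNA was eluted in hot SDS and hybridised to a DNA barcode microarray at 55.5 °C for 20 h.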

TO-N3 (biotin conjugate) = system: TO-N3 (biotin conjugate)
Method in brief: as §1

[2] = system: TO-3-N3-2 (biotin conjugate)
Method in brief: as §1

[3] = system: TO-N3-2 (biotin conjugate)
Method in brief: as §1

| Sequence | pull-down binding Z-score [1] | pull-down binding Z-score (TO-N3 (biotin conjugate)) | pull-down binding Z-score [2] | pull-down binding Z-score [3] |
| --- | --- | --- | --- | --- |
| UAUAUGCCUUAUUUCUUUACUUUAUUGCUACAAUUGUGUACUUUUACUAGAAGUACAAAUUCUAGAAUUAAAGCAUCUA [DMSMaPseq_invitro_SARS-CoV-2_Motif_128] | -0.237 | -0.348 | 0.0402 | -0.67 |
| ACGUACUGCCACUAAAGCAUACAAUGUAACACAAGCUUUCGGCAGACGU | 0.386 | 0.464 | 0.565 | 0.871 |
| CAUGUUUAUCACCCGCGAAGAAGCUAUAAGACAUGUACGUGCAUGGAUUGGCUUCGAUGUCGAGGGGUGUCAUG [DMSMaPseq_invitro_SARS-CoV-2_Motif_326] | -0.699 | -0.771 | -0.363 | -0.0649 |
| UAGAGUGCUAUCUA [SHAPE_invitro_SARS-CoV-2_Motif_352] | -0.809 | -0.957 | -0.553 | -0.86 |
| GAGGCACUUAAAAUGACCAUGGCCUC [IAV_invivo_NS1_NEP_8_Motif_6+IAV_invivo_NS1_NEP_8_Motif_6] | 0.555 | 0.233 | 0.446 | -0.305 |
| GCACUACAGCUAAGGCUAUGGAGC [IAV_invivo_M1_M2_7_Motif_13+IAV_invivo_M1_M2_7_Motif_13] | -0.491 | -0.314 | -0.311 | 0.116 |
| UGUGGACAUGUCAAUGACAUAUGGACAACAGUUUGGUCCAACUUAUUUGGAUGGAGCUGAUGUUACUAAAAUAAAACCUCAUAAUUCACA | -0.618 | -0.544 | -0.162 | -0.453 |
| AUCUUUCUGUGCUUUUGCUGUAGAUGCUGCUAAAGCUUACAAAGAU | 0.238 | 0.0426 | 0.0938 | -0.263 |
| GCUAGUCUUAAUGGAGUCACAUUAAUUGGAGAAGC | 0.378 | 0.474 | 0.112 | 0.337 |
| ACUAAAAUAAAACCUCAUAAUUCACAUGAAGGUAAAACAUUUUAUGUUUUACCUAAUGAUGACACUCUACGUGUUGAGGCUUUUGAGU [DMSMaPseq_invitro_SARS-CoV-2_Multi_18_ComplexLevel_1] | -0.89 | -1.12 | -0.146 | -1.02 |
| GUCCUAUUACGGAU | -0.9 | -1.37 | -0.505 | -1.55 |
| GGGUUUACAAACAAUUUGAUACUUAUAACCU [DMSMaPseq_invitro_SARS-CoV-2_Motif_347] | -0.652 | -0.828 | -0.105 | -1.11 |
| UCACACUCAAAGGCGGUGCACCAACAAAGGUUACUUUUGGUGAUGACACUGUGAUAGAAGUGCAAGGUUACAAGAGUGUGAAUAUCACUUUUGAACUUGAUGA [DMSMaPseq_invitro_SARS-CoV-2_Multi_10_ComplexLevel_1] | 0.0984 | 0.304 | -0.184 | 0.257 |
| UAAACCACCCAUUAGUUUUCCAUUGUGUGCUAAUGGACAAGUUUUUGGUUUA [SHAPE_invivo_SARS-CoV-2_Motif_310] | -0.757 | -1 | -0.357 | -1.35 |
| GAAAUUUGACACCUUCAAUGGGGAAUGUCCAAAUUUU [SHAPE_invitro_SARS-CoV-2_Motif_22] | -0.726 | -0.92 | -0.434 | -0.988 |
| AGUUCAAGAACUUUACUCUCCAAUUUUUCUUAUUGUUGCGGCAAUAGUGUUUAUAACACUUUGCUUCACACUCAAAAGAAAGACAGAAUGAUUGAACU | -0.889 | -1.27 | -0.46 | -1.13 |
| GCAAAUUGCACAAUUUGC | 0.165 | 0.0548 | 0.661 | -0.158 |
| GACCCUGUGGGUU [SHAPE_invitro_SARS-CoV-2_Motif_242] | 0.817 | 0.574 | -0.329 | -0.805 |
| ACAAGUUGCAAUUUACAAGUCUUGAAAUUCCACGUAGGAAUGUGGCAACUUUACAAGCUGAAAAUGUAACAGGACUCUUUAAAGAUUGU | -0.302 | -0.143 | 0.247 | 0.121 |
| AACAUUUACUUAUGCAUCAGCAUUGUGGGAAAUCCAACAGGUUGUAGAUGCAGAUAGUAAAAUUGUU [DMSMaPseq_invitro_SARS-CoV-2_Motif_222] | 0.159 | -0.126 | -0.0746 | -0.134 |
| UCCCAUGAGGGG [IAV_invivo_HA_4_Motif_6+IAV_invivo_HA_4_Motif_6] | -0.753 | -1.28 | -0.725 | -1.39 |
| CUUUAGUAAUUACCUAAAGAGACGUGUAGUCUUUAAUGGUGUUUCCUUUAG | -0.924 | -1.09 | -0.575 | -1.17 |

| Sequence | pull-down binding Z-score [1] | pull-down binding Z-score (TO-N3 (biotin conjugate)) | pull-down binding Z-score [2] | pull-down binding Z-score [3] |
| --- | --- | --- | --- | --- |
| UGGGCACACUUUCUUAUGAACAAUUUAAGAAAGGUGUUCA [SHAPE_invivo_SARS-CoV-2_Motif_116] | -0.385 | -0.52 | -0.384 | -0.779 |
| UCAGCUGGUUUUCCAUUUAAUAAAUGGGGUAAGGCUAGA | -0.104 | -0.355 | -0.448 | -0.851 |
| UGAUGGUGUUCCAUUUGUAGUUUCAACUGGAUACCACUUCA [DMSMaPseq_invitro_SARS-CoV-2_Motif_261] | -0.0305 | -0.387 | -0.236 | -0.82 |
| CUUUAUUAGAAG [DMSMaPseq_invitro_SARS-CoV-2_Motif_195] | -0.165 | -0.39 | -0.21 | -0.806 |
| GCACUGACUUGCUUUAGCACUCAAUUUGCUUUUGCUUGUCCUGACGGCGUAAAACACGUCUAUCAGUUACGUGC | 0.239 | 0.281 | -0.234 | -0.056 |
| AACUGUGAUGUUGUAAUAGGAAUUGUCAACAACACAGUU | -0.296 | -0.618 | -0.0554 | -1 |
| GUCUCCUACUAAAUUAAAUGAUCUCUGCUUUACUAAUGUCUAUGCAGAUUCAUUUGUAAUUAGAGGUGAU | -0.707 | -0.922 | -0.285 | -0.628 |
| AACGGGGCGGGCCUUGGGCGGGGUAA [G4_2A2_VEGF-Pu22-mt] | 8.69 | 7.05 | 10.6 | 5.19 |
| GGUUUUAUAGCUGGCUUGAUUGCCAUAGUAAUGGUGACAAUUAUGCUUUGCUGUAUGACC | -0.96 | -0.717 | -0.541 | -0.582 |
| GGGCUCAUACCC [IAV_invivo_HA_4_Motif_7+IAV_invivo_HA_4_Motif_7] | 0.721 | 0.483 | 0.875 | 0.397 |
| GUCUCGCACCCGCGAGAU [IAV_invivo_PB2_1_Motif_2+IAV_invivo_PB2_1_Motif_2] | 0.583 | 0.279 | -0.362 | -0.742 |
| UUAAUGGAGUCACAUUAA [DMSMaPseq_invitro_SARS-CoV-2_Motif_357] | 0.485 | 0.273 | -0.347 | -1 |
| UUAAACACGCUUGUUAAACAACUUAGCUCCAAUUUUGGUGCAAUUUCAAGUGUUUUAA [SHAPE_invivo_SARS-CoV-2_Motif_457] | 0.47 | 0.301 | -0.0371 | -0.627 |
| UGUGGAAAGGGCUAUCAUCUUAUGUCCUUCCCUCA [DMSMaPseq_invitro_SARS-CoV-2_Motif_440] | -0.089 | -0.154 | -0.0817 | -0.837 |
| CUACAAAGCAACCAUGAUCUGUAUUGUCAAGUCCAUGGUAAUGCACAUGUAG | -0.654 | -0.227 | -0.092 | 0.374 |
| UGGCAUUAAUGCUUCAGUUGUAAACAUUCAAAAAGAAAUUGACCGCCUCAAUGAGGUUGCCA | -0.964 | -1.1 | -0.207 | -0.663 |
| GUUUCGGAAGAGAC | -0.255 | -0.448 | -0.443 | -0.706 |
| CUUGGAAAACUUCAAG | -0.101 | -0.471 | -0.265 | -0.863 |
| ACCAUUUAAUGAUGGU [DMSMaPseq_invitro_SARS-CoV-2_Motif_383] | -0.648 | -1.21 | -0.365 | -1.7 |
| GUCGUUGACAGGACACGAGUAACUCGUCUAUCUUCUGCAGGCUGC [SARS-CoV-2-Conserved-Structured-34_Interval-80-197_Motif_3] | -0.455 | 0.831 | 0.148 | 2.14 |
| UGUUGUAAAUAAGGGACACUUUGAUGGACAACA [DMSMaPseq_invitro_SARS-CoV-2_Motif_348] | -0.73 | -0.488 | -0.178 | 0.325 |
| UAGCUGUACCCUAUAAUAUGAGAGUUAUACAUUUUGGUGCUGGUUCUGAUAAAGGAGUUGCACCAGGUACAGCUG | -0.371 | -0.515 | -0.121 | -0.588 |

| Sequence | pull-down binding Z-score [1] | pull-down binding Z-score (TO-N3 (biotin conjugate)) | pull-down binding Z-score [2] | pull-down binding Z-score [3] |
| --- | --- | --- | --- | --- |
| ACAUCUCUGGCAUUAAUGCUUCAGUUGU [SHAPE_invivo_SARS-CoV-2_Motif_471] | -1.08 | -1.33 | -0.583 | -1.06 |
| CAGAGUACUCAAUGGUCUUUG | -0.33 | -0.395 | -0.543 | -0.606 |
| GUGCUAAUGACCCUGUGGGUUUUACAC [SHAPE_invivo_SARS-CoV-2_Motif_252] | 0.178 | 0.0247 | -0.275 | -0.465 |
| UGGGUUACAUCCUACACAGGCACCUACACACCUCAGUGUUGACACUAAAUUCAAAACUGAAGGUUUAUGUGUUGACAUACCUGGCAUACCUAAGGACAUGACCUA | -0.497 | -0.257 | -0.293 | 0.213 |
| CCUGGUCAUGCAGAUCUCAGUGCCAAGGAGGCACAGGAUGUAAUCAUGGAAGUUGUUUUCCCUAACGAAGUGGGAGCCAGG | -0.749 | -0.414 | -0.23 | 0.44 |
| CAGGCCACAAAUAGGCGUG | -0.638 | -0.509 | -0.502 | 0.278 |
| ACACUCUACGUGU | -1.14 | -1.78 | -0.979 | -1.93 |
| AAACCUAAUGAAUUAUCUAGAGUAUUAGGUUU [SHAPE_invitro_SARS-CoV-2_Motif_132] | -0.888 | -0.985 | -0.157 | -1.06 |
| CAUGUGAUCUGCACCUCUGAAGACAUG | 0.111 | 0.248 | 0.185 | 0.33 |
| CUGCUUUUGGCUUAGUUGCAG | 0.285 | 0.125 | 0.206 | -0.231 |
| CGCAGGGAAUGGAUAAUCUUGCCUGCG | -0.486 | -0.607 | -0.153 | -0.759 |
| GCCGCCACUAGAGGAGCUACUGUAGUAAUUGGAACAAGCAAAUUCUAUGGUGGUUGGC | 0.361 | 0.89 | 0.675 | 1.24 |
| GUAUCUGAAUUAC | 0.0447 | -0.136 | -0.196 | -0.281 |
| GCGCGGCCAGAAACUGGCAGCGC [mismatch-GA] | -0.773 | -1.33 | -0.798 | -1.21 |
| GCGCUGCCAGAAACUGGCUGCGC [mismatch-UU] | 0.141 | -0.231 | -0.405 | -0.689 |
| UAACACCAGGAACAAAUACUUCUAACCAGGUUGCUGUUCUUUAUCAGGGUGUUA [SHAPE_invivo_SARS-CoV-2_Motif_440] | -0.383 | -0.633 | -0.22 | -1.19 |
| AAGUUAAUUUUCCUCUGGCUGUUAUGGCCAGUAACUU [SHAPE_invivo_SARS-CoV-2_Motif_506] | -0.74 | -1.02 | -0.439 | -0.963 |
| AAAUUGCCGAUAAGUAUGUCCGCAAUUU | -0.317 | -0.683 | -0.436 | -1.13 |
| CACCAUCUGGUG [DMSMaPseq_invitro_SARS-CoV-2_Motif_188] | 0.319 | 0.0701 | -0.158 | -1.15 |
| CCUAAAGUGAAGUAUUUAUACUUUAUUAAAGG [DMSMaPseq_invitro_SARS-CoV-2_Motif_232] | 0.463 | 0.411 | -0.181 | -0.916 |
| UUAAGUGACACACUUAA | -0.711 | -1.18 | -0.663 | -1.49 |
| UACCAGCUGUACUCAACUCAAUUGAGUACAGACACUGGUG [DMSMaPseq_invitro_SARS-CoV-2_Motif_468] | -0.751 | -1.16 | -0.473 | -1.06 |
